Results on eight substances are retold here after publication doi:10.1101/329136.

Assay [1] has as its target talin VBS1 (H1-H4) residues 482-636 (UniProt Q9Y490). Description: ITC. (In general: Isothermal titration calorimetry measures the heat released or taken up as one component is titrated into another.)
For assay [2], the target named is IpaA 483-633 containing all three VBS1-3 (A483) (Shigella flexneri) (UniProt P18010). Description: SEC-MALS.
In assay [3] the target is talin VBS1 (H1-H4) residues 482-636 (UniProt Q9Y490). Description: SEC-MALS.
Assay [4] has as its target IpaA 483-633 containing all three VBS1-3 (A483) (Shigella flexneri) (UniProt P18010). Description: ITC.
In assay [5] the target is IpaA 524-633 containing only IpaA VBS1-2 (A524) (Shigella flexneri) (UniProt P18010). Description: ITC.

One may read the Kd as the equilibrium constant for the complex coming apart. Read a low Kd as tighter binding. In the case of IpaA VTBS A495K peptide, in assay [1], the Kd came out at 2.93 µM.

Consider IpaA VTBS K498E peptide, for which the Kd in assay [1] was found to be 0.3 µM.

The substance IpaA VTBS R489A K498A peptide yielded a Kd in assay [1] of 0.328 µM.

Substance IpaA VTBS peptide (488-512) returned a Kd in assay [1] of 0.174 µM.

For the substance “IpaA-VBS1 peptide (611-633) (from UniProt P18010 611-633)”, the Kd in assay [1] stood at 15.2 µM.

For the substance Talin VBS46 peptide, the Kd in assay [1] stood at 0.06 µM.

Talin VBS50 peptide came in with a Kd in assay [1] of 15 to 45 µM.

A word on the stoichiometry N: it is a count of units in the complex or per binding partner. “talin VBS1 (H1-H4) residues 482-636 (from UniProt Q9Y490 482-636) (domain or fragment)” had a stoichiometry N (talin H1-H4 per A483) in assay [2] of 2. Besides, the stoichiometry N in assay [3] was found to be 2. In assay [4], this substance returned a KD of the first, high affinity site of 0.115 µM and a KD of the second site of 4.6 µM. Further, the Kd in assay [5] stood at 2 µM.
